Laboratory results published in patent US20250206818A1 (AGENUS, published 2025).
Changes are numbered by the printed parent chain.

What was measured:
recombinant human LAG-3 = target: T1, recombinant human LAG-3 (human, UniProt P18627 23-450, limits assumed); assay: surface plasmon resonance (data not shown)
T1 sequence (looked up): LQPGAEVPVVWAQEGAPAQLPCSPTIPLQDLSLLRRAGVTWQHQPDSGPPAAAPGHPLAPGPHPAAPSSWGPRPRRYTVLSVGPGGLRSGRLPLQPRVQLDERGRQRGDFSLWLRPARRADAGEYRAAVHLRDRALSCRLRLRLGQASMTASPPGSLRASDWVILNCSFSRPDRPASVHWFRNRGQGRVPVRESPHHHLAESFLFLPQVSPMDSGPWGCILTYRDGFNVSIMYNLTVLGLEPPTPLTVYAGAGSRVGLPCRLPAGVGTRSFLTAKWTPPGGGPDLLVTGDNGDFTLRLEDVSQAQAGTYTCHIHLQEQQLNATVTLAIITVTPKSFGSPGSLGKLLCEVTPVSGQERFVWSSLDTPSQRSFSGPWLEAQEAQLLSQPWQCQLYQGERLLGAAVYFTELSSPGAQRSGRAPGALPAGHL

[1] = target: T2, human LAG-3 expressed on cells (human, UniProt P18627 23-525); assay: flow cytometry, 10 ug/ml antibody on SEA-activated primary human CD4+ T cells (FIG. 6A)
T2 construct: whole, on cells; also called CD223
T2 sequence (looked up): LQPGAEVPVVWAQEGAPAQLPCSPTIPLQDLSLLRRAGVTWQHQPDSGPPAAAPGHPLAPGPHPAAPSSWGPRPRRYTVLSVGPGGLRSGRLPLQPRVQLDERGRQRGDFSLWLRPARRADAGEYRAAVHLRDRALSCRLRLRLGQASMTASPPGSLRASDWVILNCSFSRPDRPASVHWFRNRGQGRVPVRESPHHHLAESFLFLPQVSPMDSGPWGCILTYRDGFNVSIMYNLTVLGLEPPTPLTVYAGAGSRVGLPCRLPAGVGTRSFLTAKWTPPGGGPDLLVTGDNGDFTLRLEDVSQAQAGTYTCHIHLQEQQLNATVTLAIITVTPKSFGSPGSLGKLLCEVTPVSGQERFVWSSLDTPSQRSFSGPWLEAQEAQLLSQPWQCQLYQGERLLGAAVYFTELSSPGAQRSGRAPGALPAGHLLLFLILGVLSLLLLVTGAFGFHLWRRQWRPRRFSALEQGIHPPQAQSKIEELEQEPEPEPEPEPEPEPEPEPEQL

B1: P13B02-06 (antibody, IgG1, V domains shown)
VH: QVQLVQSGAEVKKPGASVKVSCKASGFNIKDTYIHWVRQAPGQGLEWMGEIDPANDNTKYDPKFQGRVTITADTSTSTVYMELSSLRSEDTAVYYCATYYYRYDVGGFDYWGQGTLVTVSS
VL: EIVLTQSPGTLSLSPGERATLSCSVSSSISSSNLHWYQQKPGQAPRLLIYGTSNLASGIPDRFSGSGSGTDFTLTISRLEPEDFAVYYCQQWSSYPFTFGQGTKVEIK
notes: Humanized; generated as full length IgG1; also called P13B02-06 (IgG1)
B1: binds (recombinant human LAG-3); binds [1].

B2: P13B02-27 (antibody, IgG1, V domains shown)
VH: B1 VH with L4M, V5K, K12V, K23T, M48I, T76S, S77N, M81L, E82Q, D104E
VL: B1 VL with V3L, S22T, Y37F, A44S, L48W, I59V, D71S, F72Y
notes: Humanized; VH is H4_D100E; generated as full length IgG1; also called P13B02-27 (IgG1)
B2: binds (recombinant human LAG-3); binds [1].

B3: P13B02-16 (antibody, IgG1, V domains shown)
VH: B1 VH with L4M, V5K, K23T, T76S, S77N
VL: B1 VL
notes: Humanized; generated as full length IgG1; also called P13B02-16 (IgG1)
B3: binds (recombinant human LAG-3); binds [1].

B4: P13B02-26 (antibody, IgG1, V domains shown)
VH: B1 VH with L4M, V5K, K12V, K23T, M48I, T76S, S77N, M81L, E82Q, R102K
VL: B1 VL with V3L, S22T, Y37F, A44S, L48W, I59V, D71S, F72Y
notes: Humanized; VH is H4_R98K; generated as full length IgG1; also called P13B02-26 (IgG1)
B4: binds (recombinant human LAG-3); binds [1].

B5: P13B02-25 (antibody, IgG1, V domains shown)
VH: B1 VH with L4M, V5K, K12V, K23T, M48I, T76S, S77N, M81L, E82Q
VL: B1 VL with V3L, S22T, Y37F, A44S, L48W, I59V, D71S, F72Y
notes: Humanized; generated as full length IgG1; also called P13B02-25 (IgG1)
B5: binds (recombinant human LAG-3); binds [1].

B6: P13B02-07 (antibody, IgG1, V domains shown)
VH: B1 VH
VL: B1 VL with D71S, F72Y
notes: Humanized; generated as full length IgG1; also called P13B02-07 (IgG1)
B6: binds (recombinant human LAG-3); binds [1].
